B1: dsAT (dsDNA)
DNA 1: TTAATTAAATAAATTAAAAAATTTTTTAATTAAATTAATTAATAAATTAAAATAAATTTTTTAATTAAATTTTAA
DNA 2: TTAAAATTTAATTAAAAAATTTATTTTAATTTATTAATTAATTTAATTAAAAAATTTTTTAATTTATTTAATTAA
B2: ssAT (ssDNA)
DNA: B1 DNA 1
B3: dsGC (dsDNA)
DNA 1: CGGGGCGCCGCGGGGCCCCCGGCCCGCCCCGCGGGGCGCCGGGCCCCGCC
DNA 2: GGCGGGGCCCGGCGCCCCGCGGGGCGGGCCGGGGGCCCCGCGGCGCCCCG

In the first series the target is T1, His-GFP-KERP2 (Entamoeba histolytica, UniProt C4LZX9 1-239).
T1 sequence: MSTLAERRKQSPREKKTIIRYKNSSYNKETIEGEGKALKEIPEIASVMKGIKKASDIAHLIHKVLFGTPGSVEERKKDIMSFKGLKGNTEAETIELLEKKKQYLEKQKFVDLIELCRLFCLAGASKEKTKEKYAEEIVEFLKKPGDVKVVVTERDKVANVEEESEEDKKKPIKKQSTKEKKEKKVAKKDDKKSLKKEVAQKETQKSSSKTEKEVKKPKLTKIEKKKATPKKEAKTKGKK
Description: EMSA. A general note: In EMSA bound probe runs differently from free probe, usually more slowly.
In the case of B1, the binding result is on record as “binds”.
B2: the binding result is recorded as “binds”.
In the case of B3, the binding result is reported as “no binding”.

Another series has as its target T2, His-GFP-KERP2Δ185-239 (Entamoeba histolytica, UniProt C4LZX9 1-184, del185-239).
T2 sequence: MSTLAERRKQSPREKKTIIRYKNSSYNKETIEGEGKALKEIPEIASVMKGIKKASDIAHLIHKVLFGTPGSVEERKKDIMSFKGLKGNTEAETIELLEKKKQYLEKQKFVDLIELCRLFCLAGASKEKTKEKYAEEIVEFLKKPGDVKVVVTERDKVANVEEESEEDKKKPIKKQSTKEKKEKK
As to the kind of experiment: EMSA.
As to B1, the binding result is listed as “binds”.
Turning to B2, the binding result is “binds”.
The same measure, in the same setting: the same measure for B3: “no binding”.

Values taken from PMC13184332.
